We go through five sequences from the supplement of paper PMC5998384.

For data set [1], the system named is HeLa Kyoto. Nature of the data set: solubility in G1/S (NP-40 vs SDS abundance) (log2 ratio); higher = more soluble. The note with it: cell cycle stage: G1/S.
For data set [2], the system named is HeLa Kyoto. Nature of the data set: melting temperature (median over replicates), in situ; higher = more thermally stable.
Data set [3] has as its system HeLa Kyoto. As to the kind of experiment: solubility change mitosis vs G1/S (difference of NP-40 vs SDS log2 ratios) (log2 ratio difference); higher = more soluble in mitosis.
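Wherever melting temperature (median over replicates), in situ is given: HeLa Kyoto cells synchronized by double thymidine or nocodazole block, proteins quantified by TMT10plex mass spectrometry, three independent biological replicates.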
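Wherever solubility change mitosis vs G1/S (difference of NP-40 vs SDS log2 ratios) is given: synchronized HeLa Kyoto cells (double thymidine block for G1/S, nocodazole release for mitosis), protein amounts in NP-40 versus SDS lysates quantified by mass spectrometry, three biological replicates.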
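Wherever solubility in G1/S (NP-40 vs SDS abundance) is given: HeLa Kyoto cells arrested at G1/S by double thymidine block, proteins quantified by TMT10plex mass spectrometry in mild NP-40 versus SDS extracts, three biological replicates.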

As for “MKGLGDSRPRHLSDSLDPPHEPLFAGTDRNPYLLSPTEAFAREARFPGQNTLPGDGLFPLNNQLPPPSSTFPRIHYNSHFEVPEESPFPSHAQATKINRLPANLLDQFEKQLPIHRDGFSTLQFPRGEAKARGESPGRIRHLVHSVQRLFFTKAPSLEGTAGKVGGNGSKKGGMEDGKGRRAKSKERAKAGEPKRRSRSNISGWWSSDDNLDGEAGAFRSSGPASGLMTLGRQAERSQPRYFMHAYNTISGHMLKTTKNNTTELTAPPPPPAPPATCPSLGVGTDTNYVKRGSWSTLTLSHAHEVCQKTSATLDKSLLKSKSCHQGLAYHYLQVPGGGGEWSTTLLSPRETDAAAEGPIPCRRMRSGSYIKAMGDEDSDESGGSPKPSPKTAARRQSYLRATQQSLGEQSNPRRSLDRLDSVDMLLPSKCPSWEEDYTPVSDSLNDSSCISQIFGQASLIPQLFGHEQQVREAELSDQYEAACESACSEAESTAAETLDLPLPSYFRSRSHSYLRAIQAGCSQEEDSVSLQSLSPPPSTGSLSNSRTLPSSSCLVAYKKTPPPVPPRTTSKPFISVTVQSSTESAQDTYLDSQDHKSEVTSQSGLSNSSDSLDSSTRPPSVTRGGVAPAPEAPEPPPKHAALKSEQGTLTSSESHPEAAPKRKLSSIGIQVDCIQPVPKEEPSPATKFQSIGVQVEDDWRSSVPSHSMSSRRDTDSDTQDANDSSCKSSERSLPDCTPHPNSISIDAGPRQAPKIAQIKRNLSYGDNSDPALEASSLPPPDPWLETSSSSPAEPAQPGACRRDGYWFLKLLQAETERLEGWCCQMDKETKENNLSEEVLGKVLSAVGSAQLLMSQKFQQFRGLCEQNLNPDANPRPTAQDLAGFWDLLQLSIEDISMKFDELYHLKANSWQLVETPEKRKEEKKPPPPVPKKPAKSKPAVSRDKASDASDKQRQEARKRLLAAKRAASVRQNSATESADSIEIYVPEAQTRL [DLGAP4]”, the “solubility in G1/S (log2)” value with HeLa Kyoto [1] was 0.269. In the data set on HeLa Kyoto [2] (cell cycle stage: mitosis), this sequence came in with a melting temperature of 55.5 °C. In the data set with HeLa Kyoto [3], the “solubility change mitosis (log2)” value is -0.0211.
Turning to “MKIGSGFLSGGGGTGSSGGSGSGGGGSGGGGGGGSSGRRAEMEPTFPQGMVMFNHRLPPVTSFTRPAGSAAPPPQCVLSSSTSAAPAAEPPPPPAPDMTFKKEPAASAAAFPSQRTSWGFLQSLVSIKQEKPADPEEQQSHHHHHHHHYGGLFAGAEERSPGLGGGEGGSHGVIQDLSILHQHVQQQPAQHHRDVLLSSSSRTDDHHGTEEPKQDTNVKKAKRPKPESQGIKAKRKPSASSKPSLVGDGEGAILSPSQKPHICDHCSAAFRSSYHLRRHVLIHTGERPFQCSQCSMGFIQKYLLQRHEKIHSREKPFGCDQCSMKFIQKYHMERHKRTHSGEKPYKCDTCQQYFSRTDRLLKHRRTCGEVIVKGATSAEPGSSNHTNMGNLAVLSQGNTSSSRRKTKSKSIAIENKEQKTGKTNESQISNNINMQSYSVEMPTVSSSGGIIGTGIDELQKRVPKLIFKKGSRKNTDKNYLNFVSPLPDIVGQKSLSGKPSGSLGIVSNNSVETIGLLQSTSGKQGQISSNYDDAMQFSKKRRYLPTASSNSAFSINVGHMVSQQSVIQSAGVSVLDNEAPLSLIDSSALNAEIKSCHDKSGIPDEVLQSILDQYSNKSESQKEDPFNIAEPRVDLHTSGEHSELVQEENLSPGTQTPSNDKASMLQEYSKYLQQAFEKSTNASFTLGHGFQFVSLSSPLHNHTLFPEKQIYTTSPLECGFGQSVTSVLPSSLPKPPFGMLFGSQPGLYLSALDATHQQLTPSQELDDLIDSQKNLETSSAFQSSSQKLTSQKEQKNLESSTGFQIPSQELASQIDPQKDIEPRTTYQIENFAQAFGSQFKSGSRVPMTFITNSNGEVDHRVRTSVSDFSGYTNMMSDVSEPCSTRVKTPTSQSYR [ZNF281]”, the “solubility in G1/S (log2)” value in the data set with HeLa Kyoto [1] was -0.357. Further, the melting temperature worked out at 45.1 °C with HeLa Kyoto [2] (cell cycle stage: G1/S) and 47.4 °C with HeLa Kyoto [2] (cell cycle stage: mitosis). The “solubility change mitosis (log2)” value in the data set on HeLa Kyoto [3] amounted to 0.0949.
Turning to “MKVLLLKDAKEDDCGQDPYIRELGLYGLEATLIPVLSFEFLSLPSFSEKLSHPEDYGGLIFTSPRAVEAAELCLEQNNKTEVWERSLKEKWNAKSVYVVGNATASLVSKIGLDTEGETCGNAEKLAEYICSRESSALPLLFPCGNLKREILPKALKDKGIAMESITVYQTVAHPGIQGNLNSYYSQQGVPASITFFSPSGLTYSLKHIQELSGDNIDQIKFAAIGPTTARALAAQGLPVSCTAESPTPQALATGIRKALQPHGCC [UROS]”, in the data set on HeLa Kyoto [1], the “solubility in G1/S (log2)” value came to 0.234. The melting temperature in the data set with HeLa Kyoto [2] (cell cycle stage: G1/S) came to 51.5 °C; in the data set on HeLa Kyoto [2] (cell cycle stage: mitosis), 52.4 °C. In addition, the “solubility change mitosis (log2)” value in the data set with HeLa Kyoto [3] came to 0.14.
In the same order, the values of “MLGWIKRLIRMVFQQVGVSMQSVLWSRKPYGSSRSIVRKIGTNLSLIQCPRVQFQINSHATEWSPSHPGEDAVASFADVGWVAKEEGECSARLRTEVRSRPPLQDDLLFFEKAPSRQISLPDLSQEEPQLKTPALANEEALQKICALENELAALRAQIAKIVTQQEQQNLTAGDLDSTTFGTIPPHPPPPPPPLPPPALGLHQSTSAVDLIKERREKRANAGKTLVKNNPKKPEMPNMLEILKEMNSVKLRSVKRSEQDVKPKPVDATDPAALIAEALKKKFAYRYRSDSQDEVEKGIPKSESEATSERVLFGPHMLKPTGKMKALIENVSDS [MTFR1]” are 0.556, 49.3 °C, 52.1 °C and 0.0301.
Take “MLQGHSSVFQALLGTFFTWGMTAAGAALVFVFSSGQRRILDGSLGFAAGVMLAASYWSLLAPAVEMATSSGGFGAFAFFPVAVGFTLGAAFVYLADLLMPHLGAAEDPQTTLALNFGSTLMKKKSDPEGPALLFPESELSIRIGRAGLLSDKSENGEAYQRKKAAATGLPEGPAVPVPSRGNLAQPGGSSWRRIALLILAITIHNVPEGLAVGVGFGAIEKTASATFESARNLAIGIGIQNFPEGLAVSLPLRGAGFSTWRAFWYGQLSGMVEPLAGVFGAFAVVLAEPILPYALAFAAGAMVYVVMDDIIPEAQISGNGKLASWASILGFVVMMSLDVGLG [SLC39A11]”: the “solubility in G1/S (log2)” value in the data set with HeLa Kyoto [1] came out at 0.00506. Moreover, the figures for the melting temperature in the data set on HeLa Kyoto [2] (cell cycle stage: G1/S) and with HeLa Kyoto [2] (cell cycle stage: mitosis) were 56 °C and 51.9 °C, respectively. In the data set with HeLa Kyoto [3], the “solubility change mitosis (log2)” value is -0.134.
